# According to US5162203A, “Methods of measuring isozymes and isozyme classes of alcohol dehydrogenase” (President and Fellows of Harvard College, priority 1989, dated 1992):
# How the values were obtained:
# Format in all cases: biochemical, human
# [1] = substrate: COc1ccc2cc(C=O)ccc2c1; experiment: Kinetics of enzymatic reduction of methoxynaphthaldehydes by Class III ADH; settings: other: pH 7.0, 50 μM NADH, 25.0 °C
# [2] = substrate: COc1ccc(C=O)c2ccccc12; experiment: Kinetics of enzymatic reduction of methoxynaphthaldehydes by γ1γ1 ADH; settings: other: pH 7.0, 50 μM NADH, fluorometric, 25.0 °C
# [3] = substrate: COc1ccc2cc(C=O)ccc2c1; experiment: as above; settings: other: pH 7.0, 50 μM NADH, fluorometric, 25.0 °C
# [4] = substrate: COc1ccc(C=O)c2ccccc12; experiment: Kinetics of enzymatic reduction of methoxynaphthaldehydes by Class II ADH; settings: 25.0 °C
# [5] = substrate: COc1ccc2cc(C=O)ccc2c1; experiment: as above; settings: other: pH 7.0, 50 μM NADH; spectrophotometric; pH 7.0; 25.0 °C
# [6] = substrate: COc1ccc(C=O)c2ccccc12; experiment: Kinetics of enzymatic reduction of methoxynaphthaldehydes by β1γ1 ADH; settings: other: pH 7.0, 50 μM NADH, fluorometric, 25.0 °C
# [7] = substrate: COc1ccc2cc(C=O)ccc2c1; experiment: as above; settings: other: pH 7.0, 50 μM NADH, fluorometric, 25.0 °C
# [8] = substrate: COc1ccc(C=O)c2ccccc12; experiment: Kinetics of enzymatic reduction of methoxynaphthaldehydes by αβ1 ADH; settings: other: pH 7.0, 50 μM NADH, spectrophotometric, 25.0 °C
# Experimental: (§1) Standard assays for ethanol oxidation activity (Dalziel, 1957, Acta Chem Scand 11:1706-23) were carried out on a Cary 219 spectrophotometer interfaced with an Apple IIe microcomputer, using software provided by Varian Associates. The reaction mixture contained 2.5 mM NAD^+ in 0.1M glycine-NaOH buffer. pH 10.0, and 33 mM or 0.2M ethanol for Class I and Class II ADH, respectively.
# (§2) Aldehyde reduction was monitored by following the decrease of absorption at 340 nm in 40 mM Mes buffer, pH 7.1. in the presence of saturating NADH, 50 μM for Class I and 100 μM for Class II. […] Initial reaction rates were measured and kinetic parameters determined by conventional procedures as described by Segel, 1975, Enzyme Kinetics, pp. 591-597, Wiley, N.Y.
# (§3) All reaction mixtures (3 ml total volume) were prepared directly in 1 cm pathlength, 4 ml fluorometric cuvettes by adding 150 μl of the 300 μM substrate solution (e.g substrate IA or IIA) 100 μl of the 1 mM NADH solution (prepared as in part 5 above) and 2.69 ml of assay buffer (0.1M phosphate, pH 7.6). After thermal equilibration (25° C.) for 5 minutes, 60 μl of isozyme sample (either serum or purified ADH isozymes) was added to the cuvette.
# (§4) The linear increase of fluorescence was then recorded for 1-10 minutes, until 0.03-1 μM of substrate was consumed. Larger substrate consumption was not found to be desirable (described in subpart (c) below). After this period the instrument sensitivity setting was reduced 10-30 fold, the signal compensated once again by zero suppression (see part 6 above), and 60 μl of 200-400 μM product (e.g., product IB or IIB) was added to provide an internal standard. The added product fluorescence intensity was then measured Fluorescence measurements were optimized for samples with low activity (<1 nM/minute). […] Rates measured in the presence of the 0.2 mM ADH inhibitors. […]
# (§5) The rates of aldehyde reduction, determined as initial velocities (V) and expressed in units of nM/minute, were calculated according to: [formula] where the quantity in parentheses is the slope of the linear fluorescence increase calculated from the quantities Ft and FO, the fluorescence at time t and at the beginning of the reaction, respectively. Cst is the concentration of the product used as a standard added to the cuvette after the initial rate had been measured and Fst is the fluorescence intensity of the added product
# (§6) Additionally the reaction rates for these isozymes were compared to those measured by the standard assay for ethanol oxidation (see part 7 above) at pH 10.0 the optimum for oxidation of ethanol by ADH. The rate of IA reduction for all Class I isozymes except the β1 β1 form is 1.5- to 4-fold faster than that of ethanol oxidation as measured by the conventional ethanol oxidation assay. […]
# [9] = substrate: COc1ccc2cc(C=O)ccc2c1; experiment: as above; settings: other: pH 7.0, 50 μM NADH, spectrophotometric, 25.0 °C
# Experimental: as §1, §2, §3, §4, §5, §6
# [10] = substrate: COc1ccc(C=O)c2ccccc12; experiment: Kinetics of enzymatic reduction of methoxynaphthaldehydes by αγ1 ADH; settings: other: pH 7.0, 50 μM NADH, fluorometric, 25.0 °C
# [11] = substrate: COc1ccc2cc(C=O)ccc2c1; experiment: as above; settings: other: pH 7.0, 50 μM NADH, fluorometric, 25.0 °C
# [12] = other: pH 7.0, 50 μM NADH, spectrophotometric, pH 7.0
protein,measurement,setting,value
Class III (.chi.) ADH (Homo sapiens) (protein) MANEVIKCKAAVAWEAGKPLSIEEIEVAPPKAHEVRIKIIATAVCHTDAYTLSGADPEGCFPVILGHEGAGIVESVGEGVTKLKAGDTVIPLYIPQCGECKFCLNPKTNLCQKIRVTQGKGLMPDGTSRFTCKGKTILHYMGTSTFSEYTVVADISVAKIDPLAPLDKVCLLGCGISTGYGAAVNTAKLEPGSVCAVFGLGGVGLAVIMGCKVAGASRIIGVDINKDKFARAKEFGATECINPQDFSKPIQEVLIEMTDGGVDYSFECIGNVKVMRAALEACHKGWGVSVVVGVAASGEEIATRPFQLVTGRTWKGTAFGGWKSVESVPKLVSEYMSKKIKVDEFVTHNLSFDEINKAFELMHSGKSIRTVVKI,kcat/Km,[1],830 M⁻¹ s⁻¹
"γ1 γ1 ADH (Class I) (Homo sapiens) (protein, gamma1 allele (ADH1C*1, Arg271 and Ile349 in mature count)) STAGKVIKCKAAVLWELKKPFSIEEVEVAPPKAHEVRIKMVAAGICRSDEHVVSGNLVTPLPVILGHEAAGIVESVGEGVTTVKPGDKVIPLFTPQCGKCRICKNPESNYCLKNDLGNPRGTLQDGTRRFTCSGKPIHHFVGVSTFSQYTVVDENAVAKIDAASPLEKVCLIGCGFSTGYGSAVKVAKVTPGSTCAVFGLGGVGLSVVMGCKAAGAARIIAVDINKDKFAKAKELGATECINPQDYKKPIQEVLKEMTDGGVDFSFEVIGRLDTMMASLLCCHEACGTSVIVGVPPDSQNLSINPMLLLTGRTWKGAIFGGFKSKESVPKLVADFMAKKFSLDALITNILPFEKINEGFDLLRSGKSIRTVLTF",Km,[2],2.30 µM
same,kcat,[2],10.2 s⁻¹
same,Km,[3],0.35 µM
same,kcat,[3],1.83 s⁻¹
Class II (π) ADH (Homo sapiens) (protein) MGTKGKVIKCKAAIAWEAGKPLCIEEVEVAPPKAHEVRIQIIATSLCHTDATVIDSKFEGLAFPVIVGHEAAGIVESIGPGVTNVKPGDKVIPLYAPLCRKCKFCLSPLTNLCGKISNLKSPASDQQLMEDKTSRFTCKGKPVYHFFGTSTFSQYTVVSDINLAKIDDDANLERVCLLGCGFSTGYGAAINNAKVTPGSTCAVFGLGGVGLSAVMGCKAAGASRIIGIDINSEKFVKAKALGATDCLNPRDLHKPIQEVIIELTKGGVDFALDCAGGSETMKAALDCTTAGWGSCTFIGVAAGSKGLTIFPEELIIGRTINGTFFGGWKSVDSIPKLVTDYKNKKFNLDALVTHTLPFDKISEAFDLMNQGKSVRTILIF,kcat,[4]; other: Class II,0.667 s⁻¹
same,Km,[4]; [12],20.0 µM
same,kcat,[4]; [12],0.833 s⁻¹
same,Km,[5],2.6 µM
same,kcat,[5],25 s⁻¹
"β1 γ1 ADH (Class I) (Homo sapiens) (protein, beta1 (ADH1B*1) and gamma1 (ADH1C*1) alleles) chain 1: MSTAGKVIKCKAAVLWEVKKPFSIEDVEVAPPKAYEVRIKMVAVGICHTDDHVVSGNLVTPLPVILGHEAAGIVESVGEGVTTVKPGDKVIPLFTPQCGKCRVCKNPESNYCLKNDLGNPRGTLQDGTRRFTCRGKPIHHFLGTSTFSQYTVVDENAVAKIDAASPLEKVCLIGCGFSTGYGSAVNVAKVTPGSTCAVFGLGGVGLSAVMGCKAAGAARIIAVDINKDKFAKAKELGATECINPQDYKKPIQEVLKEMTDGGVDFSFEVIGRLDTMMASLLCCHEACGTSVIVGVPPASQNLSINPMLLLTGRTWKGAVYGGFKSKEGIPKLVADFMAKKFSLDALITHVLPFEKINEGFDLLHSGKSIRTVLTF chain 2: MSTAGKVIKCKAAVLWELKKPFSIEEVEVAPPKAHEVRIKMVAAGICRSDEHVVSGNLVTPLPVILGHEAAGIVESVGEGVTTVKPGDKVIPLFTPQCGKCRICKNPESNYCLKNDLGNPRGTLQDGTRRFTCSGKPIHHFVGVSTFSQYTVVDENAVAKIDAASPLEKVCLIGCGFSTGYGSAVKVAKVTPGSTCAVFGLGGVGLSVVMGCKAAGAARIIAVDINKDKFAKAKELGATECINPQDYKKPIQEVLKEMTDGGVDFSFEVIGRLDTMMASLLCCHEACGTSVIVGVPPDSQNLSINPMLLLTGRTWKGAIFGGFKSKESVPKLVADFMAKKFSLDALITNILPFEKINEGFDLLRSGKSIRTVLTF",Km,[6],0.60 µM
same,kcat,[6],4.42 s⁻¹
same,Km,[7],0.40 µM
same,kcat,[7],2.83 s⁻¹
"αβ1 ADH (Class I) (Homo sapiens) (protein, beta1 allele (ADH1B*1, Arg47 and Arg369 in mature count)) chain 1: STAGKVIKCKAAVLWELKKPFSIEEVEVAPPKAHEVRIKMVAVGICGTDDHVVSGTMVTPLPVILGHEAAGIVESVGEGVTTVKPGDKVIPLAIPQCGKCRICKNPESNYCLKNDVSNPQGTLQDGTSRFTCRRKPIHHFLGISTFSQYTVVDENAVAKIDAASPLEKVCLIGCGFSTGYGSAVNVAKVTPGSTCAVFGLGGVGLSAIMGCKAAGAARIIAVDINKDKFAKAKELGATECINPQDYKKPIQEVLKEMTDGGVDFSFEVIGRLDTMMASLLCCHEACGTSVIVGVPPDSQNLSMNPMLLLTGRTWKGAILGGFKSKECVPKLVADFMAKKFSLDALITHVLPFEKINEGFDLLHSGKSIRTILMF chain 2: STAGKVIKCKAAVLWEVKKPFSIEDVEVAPPKAYEVRIKMVAVGICHTDDHVVSGNLVTPLPVILGHEAAGIVESVGEGVTTVKPGDKVIPLFTPQCGKCRVCKNPESNYCLKNDLGNPRGTLQDGTRRFTCRGKPIHHFLGTSTFSQYTVVDENAVAKIDAASPLEKVCLIGCGFSTGYGSAVNVAKVTPGSTCAVFGLGGVGLSAVMGCKAAGAARIIAVDINKDKFAKAKELGATECINPQDYKKPIQEVLKEMTDGGVDFSFEVIGRLDTMMASLLCCHEACGTSVIVGVPPASQNLSINPMLLLTGRTWKGAVYGGFKSKEGIPKLVADFMAKKFSLDALITHVLPFEKINEGFDLLHSGKSIRTVLTF",Km,[8],8.5 µM
same,kcat,[8],7.5 s⁻¹
same,Km,[9],11.5 µM
same,kcat,[9],2.67 s⁻¹
"αγ1 ADH (Class I) (Homo sapiens) (protein, gamma1 allele (ADH1C*1, Arg271 and Ile349 in mature count)) chain 1: STAGKVIKCKAAVLWELKKPFSIEEVEVAPPKAHEVRIKMVAVGICGTDDHVVSGTMVTPLPVILGHEAAGIVESVGEGVTTVKPGDKVIPLAIPQCGKCRICKNPESNYCLKNDVSNPQGTLQDGTSRFTCRRKPIHHFLGISTFSQYTVVDENAVAKIDAASPLEKVCLIGCGFSTGYGSAVNVAKVTPGSTCAVFGLGGVGLSAIMGCKAAGAARIIAVDINKDKFAKAKELGATECINPQDYKKPIQEVLKEMTDGGVDFSFEVIGRLDTMMASLLCCHEACGTSVIVGVPPDSQNLSMNPMLLLTGRTWKGAILGGFKSKECVPKLVADFMAKKFSLDALITHVLPFEKINEGFDLLHSGKSIRTILMF chain 2: STAGKVIKCKAAVLWELKKPFSIEEVEVAPPKAHEVRIKMVAAGICRSDEHVVSGNLVTPLPVILGHEAAGIVESVGEGVTTVKPGDKVIPLFTPQCGKCRICKNPESNYCLKNDLGNPRGTLQDGTRRFTCSGKPIHHFVGVSTFSQYTVVDENAVAKIDAASPLEKVCLIGCGFSTGYGSAVKVAKVTPGSTCAVFGLGGVGLSVVMGCKAAGAARIIAVDINKDKFAKAKELGATECINPQDYKKPIQEVLKEMTDGGVDFSFEVIGRLDTMMASLLCCHEACGTSVIVGVPPDSQNLSINPMLLLTGRTWKGAIFGGFKSKESVPKLVADFMAKKFSLDALITNILPFEKINEGFDLLRSGKSIRTVLTF",Km,[10],2.8 µM
same,kcat,[10],8.33 s⁻¹
same,Km,[11],0.58 µM
same,kcat,[11],2.5 s⁻¹
